Test results: patent US20040072319A1, “Molecules that modulate ubiquintin-dependent proteolysis and methods for identifying same” (priority 2003, published 2004)
“And” between values parts separate entries of the source, which are not always exact repeats. Equal values may be shown once. Square brackets hold non-standard residues; d marks the D form. Ends that are not written are not given here. Peptide text beside a SMILES is read from it. pY = N[C@@H](Cc1ccc(OP(=O)(O)O)cc1)C(=O)O; pT = C[C@@H](OP(=O)(O)O)[C@H](N)C(=O)O; pS = N[C@@H](COP(=O)(O)O)C(=O)O

Experiments:
[1] = biological target: T1, Skp1-Cdc4 complex (yeast, UniProt P07834 1-779; P52286 1-194, limits assumed); assay: fluorescence polarization, 5 nM fluorescein-labeled peptide, Cdc4/Skp1 titrated
T1 construct: Purified complex (Gst removed by TEV, size exclusion) for fluorescence polarization and SPOTS arrays; also called Cdc4/Skp1; cdc4/skp1 complex

[2] = biological target: Cdc4 (Saccharomyces cerevisiae, UniProt P07834); assay: Fluorescence polarization equilibrium binding of peptides to Cdc4; set-up: made in house; host or cells: Cdc4: baculovirus-infected insect (Sf9) cells; Gst-Skp1: E. coli BL21 codon plus; species or system yeast
Description: Equilibrium binding constant determination was carried out using fluorescence polarization on a Beacon 2000 Fluorescence Polarization System (Pan Vera, Wis.) equipped with a 100 μL sample chamber. Fluorescein-labeled probes were prepared through the reaction of carboxyterminal-peptides with 5-(and-6)-carboxyfluorescein succinimidyl ester (Molecular Probes), purified by reverse-phase HPLC, and confirmed by mass spectrometry. Binding studies were conducted with 5 nM fluorescein-labeled probe dissolved in PBS containing 100 μg/ml BSA and 1 mM dithiothreitol. Reaction mixtures were allowed to equilibrate for 10 minutes at room temperature prior to each measurement. All fluorescence polarization measurements were conducted at 22° C.

[3] = biological target: T2, Cdc4-Skp1 complexes (Saccharomyces cerevisiae, UniProt P07834); assay: Peptide out-competition of phosphorylated substrates binding to Cdc4-Skp1; set-up: species or system yeast; conditions: peptide 3, 17, 68 μM in FIG. 6f
T2 construct: made in house; host or cells: insect cells (baculovirus)
Text: SCF complexes were purified from SF9 cells infected with recombinant baculoviruses and used in binding assays and ubiquitination reactions essentially as described (7). Gst-Skp1 expressed in BL21 codon plus cells (Stratagene) then purified on glutathione resin was used to capture full Cdc4 from insect cell lysates. Truncated forms of Cdc4 were enriched prior to Gst-Skp1 capture by affinity purification of hexahistidine fusion proteins on a metal chelate column. The Skp1-Cdc4 complexes were released from the Gst moiety by cleavage with TEV protease and further purified by size exclusion chromatography on a Superdex S75 or S200 column. Biotin labeled […]p[…] (SEQ ID NO. 1), […] (SEQ ID NO. 12), and APPLSQEpTFSDLWK (SEQ ID NO. 13) were synthesized by addition of d-biotin (Sigma) with an Fmoc-e-aminocaproic acid (Bachem) spacer to carboxy-terminal peptides. […] Streptavidin-agarose beads (Sigma) were incubated in the presence of biotinylated peptide for 90 min. at 4° C. Beads were washed 3 times and then incubated with lysates from Cdc4 expressing baculovirus infected Sf9 cells. Beads were washed 4 times, after which SDS-PAGE gel loading buffer was added and the beads were boiled for 5 min. Proteins were separated by SDS-PAGE and visualized by silver stain. Peptide out-competition of phosphorylated substrates was carried out with immunopurified Skp1^FLAG-Cdc4 from insect cells, which were incubated with phosphopeptides prior to addition of phospho-Sic1 or phospho-Cyclin E-Cdk2. For kinase inhibition assays, purified recombinant Clb5-Cdc28 complex (30 ng) was incubated with mutant forms of Sic1 (40 ng) and histone H1 (HH1, 2 μg) for 1 h on ice prior to addition of [^32P]-γ-ATP and incubation at 25° C. for 30 min. Samples were separated by SDS-PAGE and visualized by autoradiography.

[4] = biological target: T1, Skp1-Cdc4 complex; assay: fluorescence polarization
Description: Equilibrium binding constant determination was carried out using fluorescence polarization on a Beacon 2000 Fluorescence Polarization System (Pan Vera, Wis.) equipped with a 100 μL sample chamber. […] Binding studies were conducted with 5 nM fluorescein-labeled probe dissolved in PBS containing 100 μg/ml BSA and 1 mM dithiothreitol. Reaction mixtures were allowed to equilibrate for 10 minutes at room temperature prior to each measurement. All fluorescence polarization measurements were conducted at 22° C.
The requirement for phosphorylation on threonine, as opposed to serine or tyrosine residues was also investigated.

[5] = K, (μM), Table 1, average of at least 3 sets of readings, ± SEM, ND = no binding detected up to [Cdc4/Skp1] of 10 μM, ˜ = saturation binding not achieved
[6] = dissociation constant Kd for Cdc4

T1 sequence (P07834 whole entry, chain 1 of 2): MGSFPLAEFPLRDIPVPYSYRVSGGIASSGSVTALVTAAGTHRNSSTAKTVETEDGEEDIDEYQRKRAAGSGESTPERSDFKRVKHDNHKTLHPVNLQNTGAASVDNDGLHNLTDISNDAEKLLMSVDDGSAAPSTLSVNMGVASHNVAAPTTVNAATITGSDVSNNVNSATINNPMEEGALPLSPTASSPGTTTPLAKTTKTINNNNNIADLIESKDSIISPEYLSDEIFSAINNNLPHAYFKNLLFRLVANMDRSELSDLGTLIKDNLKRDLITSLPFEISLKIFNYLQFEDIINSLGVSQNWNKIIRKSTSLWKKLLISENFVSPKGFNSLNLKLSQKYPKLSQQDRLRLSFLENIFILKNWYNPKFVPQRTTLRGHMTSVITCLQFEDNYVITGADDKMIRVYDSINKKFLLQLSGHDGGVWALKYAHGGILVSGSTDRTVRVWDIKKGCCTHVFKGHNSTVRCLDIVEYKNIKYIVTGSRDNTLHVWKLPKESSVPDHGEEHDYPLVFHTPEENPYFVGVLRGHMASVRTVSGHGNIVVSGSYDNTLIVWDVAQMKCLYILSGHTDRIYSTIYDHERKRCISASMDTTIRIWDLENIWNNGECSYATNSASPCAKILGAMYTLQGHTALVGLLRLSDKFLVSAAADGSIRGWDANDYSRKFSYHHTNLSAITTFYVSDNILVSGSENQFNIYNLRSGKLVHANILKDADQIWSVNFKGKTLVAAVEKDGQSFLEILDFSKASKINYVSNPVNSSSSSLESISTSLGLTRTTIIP
T1 sequence (P52286 whole entry, chain 2 of 2): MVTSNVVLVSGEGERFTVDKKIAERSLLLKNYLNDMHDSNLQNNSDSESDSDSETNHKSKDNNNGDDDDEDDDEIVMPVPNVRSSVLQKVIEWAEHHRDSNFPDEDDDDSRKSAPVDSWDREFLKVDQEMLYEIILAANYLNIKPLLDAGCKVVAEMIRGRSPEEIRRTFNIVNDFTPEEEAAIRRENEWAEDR
T2 sequence (P07834 whole entry): as the sequence (P07834 whole entry, chain 1 of 2) above
T2 sequence (P52286 whole entry partner): as the sequence (P52286 whole entry, chain 2 of 2) above

## CycEK4-9mer GLLpTPPQKG (peptide)
[1]
  Kd: 4.3 µM

## CycEK2-9mer GLLpTPKQSG (peptide)
[1]
  Kd: 6.3 µM

## CC(=O)NCCCC[C@H](NC(=O)[C@@H]1CCCN1C(=O)[C@@H]1CCCN1C(=O)[C@@H](NC(=O)[C@H](CC(C)C)NC(=O)[C@H](CC(C)C)NC(=O)CNC(=O)c1ccc2c(c1)C(=O)OC21c2ccc(O)cc2Oc2cc(O)ccc21)[C@@H](C)OP(=O)(O)O)C(=O)N[C@@H](CO)C(=O)NCC(=O)O [CycEK3Ac-9mer, GLLpTPPK(Ac)SG] (HELM PEPTIDE1{[O=C1OC2(c3ccc(O)cc3Oc3cc(O)ccc32)c2ccc(C(=O)[*:2])cc21].G.L.L.[C[C@@H](OP(=O)(O)O)[C@H](N[*:1])C(=O)[*:2]].P.P.K.S.G}|PEPTIDE2{[ac]}$PEPTIDE1,PEPTIDE2,8:R3-1:R2$$$V2.0)
[2]; [5]
  Kd: 1 ± 0.1 µM

## VPVpTPSTTK (VPV[pT]PSTTK) [SicpT45]
[3]
  competition with substrates (Sic1, cyclin E1, Far1) for binding to Cdc4: nor block the interaction
[2]
  binding to Cdc4 (in words): could neither bind stably to Cdc4

## CC(C)C[C@H](NC(=O)CNC(=O)c1ccc2c(c1)C(=O)OC21c2ccc(O)cc2Oc2cc(O)ccc21)C(=O)N[C@@H](CC(C)C)C(=O)N[C@@H](COP(=O)(O)O)C(=O)N1CCC[C@H]1C(=O)N1CCC[C@H]1C(=O)N[C@@H](CCC(N)=O)C(=O)N[C@@H](CO)C(=O)NCC(=O)O [CycEpS-9mer, GLLpSPPQSG] (HELM PEPTIDE1{[O=C1OC2(c3ccc(O)cc3Oc3cc(O)ccc32)c2ccc(C(=O)[*:2])cc21].G.L.L.[O=C([C@H](COP(=O)(O)O)N[*:1])[*:2]].P.P.Q.S.G}$$$$V2.0)
[2]; [6]
  Kd: 6 µM

## CycE-5mer LLpTPP (peptide)
[1]
  Kd: 0.85 µM

## PKPLNLSKPIpSPPPSLKKTA (PKPLNLSKPI[pS]PPPSLKKTA) [Far 1 pS87]
[3]
  competition with substrates (Sic1, cyclin E1, Far1) for binding to Cdc4: nor block the interaction
[2]
  binding to Cdc4 (in words): could neither bind stably to Cdc4

## GLLpYPPQSG (GLL[pY]PPQSG) [CycEpY-9mer]
[2]
  binding to Cdc4 (in words): failed to bind

## CC[C@H](C)[C@H](NC(=O)[C@H](CC(C)C)NC(=O)[C@H](CCC(N)=O)NC(=O)[C@H](CCC(=O)O)NC(=O)[C@H](CCC(N)=O)NC(=O)[C@@H]1CCCN1C(=O)[C@@H](NC(=O)[C@H](Cc1ccccc1)NC(=O)[C@H](CCC(N)=O)NC(=O)[C@@H]1CCCN1C(=O)[C@H](Cc1ccccc1)NC(=O)[C@H](CCC(=O)O)NC(=O)CNC(=O)[C@@H](NC(=O)c1ccc2c(c1)C(=O)OC21c2ccc(O)cc2Oc2cc(O)ccc21)[C@@H](C)O)[C@@H](C)OP(=O)(O)O)C(=O)O [FarpT306, TGEFPQFpTPQEQLI] (HELM PEPTIDE1{[O=C1OC2(c3ccc(O)cc3Oc3cc(O)ccc32)c2ccc(C(=O)[*:2])cc21].T.G.E.F.P.Q.F.[C[C@@H](OP(=O)(O)O)[C@H](N[*:1])C(=O)[*:2]].P.Q.E.Q.L.I}$$$$V2.0)
[2]; [5]
  Kd: ~25 µM

## CSCC[C@H](NC(=O)[C@@H]1CCCN1C(=O)[C@@H]1CCCN1C(=O)[C@@H](NC(=O)[C@@H](NC(=O)[C@@H]1CCCN1C(=O)[C@@H]1CCCN1C(=O)c1ccc2c(c1)C(=O)OC21c2ccc(O)cc2Oc2cc(O)ccc21)C(C)C)[C@@H](C)OP(=O)(O)O)C(=O)N[C@@H](CO)C(=O)N1CCC[C@H]1C(=O)O [Ash 1 pT290, PPVpTPPMSP] (HELM PEPTIDE1{[O=C1OC2(c3ccc(O)cc3Oc3cc(O)ccc32)c2ccc(C(=O)[*:2])cc21].P.P.V.[C[C@@H](OP(=O)(O)O)[C@H](N[*:1])C(=O)[*:2]].P.P.M.S.P}$$$$V2.0)
[2]; [5]
  Kd: ~25 µM

## CycEK5-9mer GLLpTPPQSK (peptide)
[1]
  Kd: 2.4 µM

## CycEK-2-9mer GKLpTPPQSG (peptide)
[1]
  Kd: 12 µM

## CC(C)C[C@H](NC(=O)CNC(=O)c1ccc2c(c1)C(=O)OC21c2ccc(O)cc2Oc2cc(O)ccc21)C(=O)N[C@@H](CC(C)C)C(=O)N[C@H](C(=O)N1CCC[C@H]1C(=O)N1CCC[C@H]1C(=O)N[C@@H](CCC(N)=O)C(=O)N[C@@H](CO)C(=O)NCC(=O)O)[C@@H](C)OP(=O)(O)O [CycE-9mer, GLLpTPPQSG] (HELM PEPTIDE1{[O=C1OC2(c3ccc(O)cc3Oc3cc(O)ccc32)c2ccc(C(=O)[*:2])cc21].G.L.L.[C[C@@H](OP(=O)(O)O)[C@H](N[*:1])C(=O)[*:2]].P.P.Q.S.G}$$$$V2.0)
[2]; [5]
  Kd: 1 ± 0.05 µM

## Sic1 15-pT45: Sic1 phosphopeptide centered on pT45; possibly the SicpT45 peptide of Table 1
[3]
  competition with substrates (Sic1, cyclin E1, Far1) for binding to Cdc4: does not measurably bind Cdc4 or compete with substrates
[2]
  binding to Cdc4 (in words): does not measurably bind Cdc4

## CC(C)C[C@H](NC(=O)[C@@H](NC(=O)[C@@H]1CCCN1C(=O)[C@@H](NC(=O)[C@@H]1CCCN1C(=O)[C@H](CC(C)C)NC(=O)[C@H](Cc1ccccc1)NC(=O)c1ccc2c(c1)C(=O)OC21c2ccc(O)cc2Oc2cc(O)ccc21)[C@@H](C)OP(=O)(O)O)C(C)C)C(=O)N[C@@H](CCC(=O)O)C(=O)N[C@@H](CC(=O)O)C(=O)O [Gcn4-9mer, FLPpTPVLED] (HELM PEPTIDE1{[O=C1OC2(c3ccc(O)cc3Oc3cc(O)ccc32)c2ccc(C(=O)[*:2])cc21].F.L.P.[C[C@@H](OP(=O)(O)O)[C@H](N[*:1])C(=O)[*:2]].P.V.L.E.D}$$$$V2.0)
[2]; [6]
  Kd: 0.675 µM and 0.88 µM

## CycEK-1-9mer GLKpTPPQSG (peptide)
[1]
  Kd: 6 µM

## CC[C@H](C)[C@H](NC(=O)[C@@H]1CCCN1C(=O)[C@@H](NC(=O)[C@H](CC(C)C)NC(=O)[C@H](CC(C)C)NC(=O)[C@H](CCC(=O)O)NC(=O)c1ccc2c(c1)C(=O)OC21c2ccc(O)cc2Oc2cc(O)ccc21)[C@@H](C)OP(=O)(O)O)C(=O)N[C@@H](CC(C)C)C(=O)N[C@@H](C)C(=O)N[C@@H](Cc1ccccc1)C(=O)O [Pc17, ELLpTPILAF] (HELM PEPTIDE1{[O=C1OC2(c3ccc(O)cc3Oc3cc(O)ccc32)c2ccc(C(=O)[*:2])cc21].E.L.L.[C[C@@H](OP(=O)(O)O)[C@H](N[*:1])C(=O)[*:2]].P.I.L.A.F}$$$$V2.0)
[2]; [5]
  Kd: ~40 µM

## CycEK3-9mer GLLpTPPKSG (peptide)
[1]
  Kd: 5.1 µM

## VEQ[pT]PKKPG [p27pT187 peptide VEQpTPKKPG]
[4]
  binding result: no binding (tested: up to [Cdc4/Skp1] of 10 µM)

## NVQ[pT]PTLMA (also called Pcl2) [Pc12 peptide NVQpTPTLMA]
[4]
  binding result: no binding (tested: up to [Cdc4/Skp1] of 10 µM)

## PKPLNLSKPI[pS]PPPSLKKTA [Far 1 pS87 peptide PKPLNLSKPIpSPPPSLKKTA]
[4]
  binding result: no binding (tested: up to [Cdc4/Skp1] of 10 µM)

B1: SicpT45 peptide VPVpTPSTTK (peptide)
peptide: VPV[pT]PSTTK
notes: also called Sic1 pT45 phosphopeptide; Sic1 15-pT45 peptide
[4]
  binding result: no binding (tested: up to [Cdc4/Skp1] of 10 µM)

## GLL[pT]APQSG [CycEA1-9mer GLLpTAPQSG]
[4]
  binding result: no binding (tested: up to [Cdc4/Skp1] of 10 µM)

## GLL[pY]PPQSG (also called CycE19-pY380) [CycEpY-9mer GLLpYPPQSG]
[4]
  binding result: no binding (tested: up to [Cdc4/Skp1] of 10 µM)
